Reference: US20240352070A1 (ECOLE POLYTECHNIQUE FEDERALE DE LAUSANNE EPFL, published 2024)
Square brackets hold non-standard residues; d marks the D form. Ends that are not written are not given here. Michael acceptor = not defined here

Assays:
[1] = molecular target: purified cathepsin B (CTSB), purchased from RndSystems (UniProt P07858 80-333); assay: cell-based or functional assay
[2] = molecular target: human cathepsin S wild-type, amino acids 17 to 331, C-terminal His-tag (CTSS-His) (human, UniProt P25774 115-331); assay: cell-based or functional assay
human cathepsin S wild-type, amino acids 17 to 331, C-terminal His-tag (CTSS-His), sequence (P25774 115-331 limits assumed, form in doubt): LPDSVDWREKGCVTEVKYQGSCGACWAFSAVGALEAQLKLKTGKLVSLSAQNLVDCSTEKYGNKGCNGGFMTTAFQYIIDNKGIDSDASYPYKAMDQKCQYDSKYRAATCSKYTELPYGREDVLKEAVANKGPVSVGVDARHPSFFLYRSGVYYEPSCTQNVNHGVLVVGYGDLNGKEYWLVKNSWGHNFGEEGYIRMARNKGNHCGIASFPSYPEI

IC50, CTSB activity, FRET assay dose-response [1]	IC50, CTSS activity, FRET assay dose-response [2]	Binder
0.0619 µM	86.6 µM	KRRY[Michael acceptor]WMW (not fully specified; reading uncertain) [Non-natural peptide inhibitor D5, KRRY(Y)WMW]
	0.0493 µM	KHRM[Michael acceptor]VMW (not fully specified; reading uncertain) [Non-natural peptide inhibitor C10, KHRM(Y)VMW]
